Consider 1 molecule from patent publication US20250353900A1 (HUMABS BIOMED, published 2025).

Test [1] addresses HBV HBsAg of genotype C on engineered hepatitis D virus (hepatitis B virus genotype C). Kind of test: cell-based or functional assay.
For test [2], the target named is HBV HBsAg of genotype A on engineered hepatitis D virus (hepatitis B virus genotype A). Kind of test: cell-based or functional assay.
Test [3] deals with T1, Human complement component C1q (human, UniProt P02745 23-245; P02746 28-253; P02747 29-245).
T1 construct: also called human complement protein C1q
Kind of test: BLI (Octet), IgG captured on anti-human Fab (CH1) sensors.
Description: IgG-loaded sensors were then exposed for 4 minutes to a solution of kinetics buffer (pH 7.1) containing 3 μg/ml of purified human C1q (left part of the plot), followed by a dissociation step in the same buffer for 4 additional minutes (right part of the plot). Association and dissociation profiles were measured in real time as change in the interference pattern using an Octet® RED96 (FortéBio).

Test [4] concerns the target T2, Recombinant human FcγRIIa (H131) (human, UniProt P12318 34-218).
T2 construct: also called FcγRIIa allele H131
T2 sequence (looked up): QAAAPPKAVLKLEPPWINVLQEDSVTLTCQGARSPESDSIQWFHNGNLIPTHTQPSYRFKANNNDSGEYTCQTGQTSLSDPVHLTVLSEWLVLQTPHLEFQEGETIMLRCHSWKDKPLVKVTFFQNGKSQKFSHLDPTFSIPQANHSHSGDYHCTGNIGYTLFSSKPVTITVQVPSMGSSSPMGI
Kind of test: BLI (Octet), His-tagged FcγR on anti-penta-His sensors, mAb cross-linked with anti-F(ab')2. On the technique in general: In BLI a coated tip is dipped into the sample, and binding shifts an interference pattern.
Description: (§1) His-tagged human FcγRs ((A) FcγRIIa allele H131; (B) FcγRIIa allele R131; (C) FcγRIIIa allele F158; (D) FcγRIIIa allele V158; (E) FcγRIIb) at 2 μg/ml were captured onto anti-penta-His sensors for 6 minutes. FcγR-loaded sensors were then exposed for 5 minutes to a solution of kinetics buffer (pH 7.1) containing 2 μg/ml of each mAb (left part of the plot) in the presence 1 μg/ml of affiniPure F(ab′)₂ Fragment Goat Anti-Human IgG, F (ab′) 2 fragment specific (to cross-link human mAbs through the Fab fragment), followed by a dissociation step in the same buffer for additional 4 minutes (right part of the plot). Association and dissociation profiles were measured in real time as change in the interference pattern using an Octet® RED96 (FortéBio).
(§2) Briefly, His-tagged human FcγRs (FcγRIIa allele H131, FcγRIIa allele R131, FcγRIIAa allele F158, FcγRIIIa allele V158 and FcγRIIb) at 2 μg/ml were captured onto anti-penta-His sensors for 6 minutes. FcγR-loaded sensors were then exposed for 4 minutes to a solution of kinetics buffer (pH 7.1) containing 2 μg/ml of each mAb in the presence 1 μg/ml of affiniPure F(ab′)₂ Fragment Goat Anti-Human IgG, F(ab′)₂ fragment-specific (to cross-link human mAbs through the Fab fragment), followed by a dissociation step in the same buffer for 4 additional minutes (right part of the plot). Association and dissociation profiles were measured in real time as change in the interference pattern using an Octet® RED96 (FortéBio).

Test [5] has as its target T3, Recombinant human FcγRIIIa (V158) (human, UniProt P08637 17-208).
T3 construct: also called FcγRIIIa allele V158
The description is as above.
Description: as §1, §2

The target of test [6] is T4, Recombinant human FcγRIIIa (F158) (human, UniProt P08637 17-208).
T4 construct: also called FcγRIIIa allele F158; FcγRIIAa allele F158
Described as above.
Description: as §1, §2

T1 sequence (P02745 23-245 limits assumed, chain 1 of 3): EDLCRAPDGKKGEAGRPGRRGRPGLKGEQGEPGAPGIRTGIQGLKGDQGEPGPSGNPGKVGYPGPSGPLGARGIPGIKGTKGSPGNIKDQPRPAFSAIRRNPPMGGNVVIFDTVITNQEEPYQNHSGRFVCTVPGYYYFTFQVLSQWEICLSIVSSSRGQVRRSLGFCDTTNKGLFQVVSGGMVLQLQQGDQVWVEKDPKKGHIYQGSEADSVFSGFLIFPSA
T1 sequence (P02746 28-253 limits assumed, chain 2 of 3): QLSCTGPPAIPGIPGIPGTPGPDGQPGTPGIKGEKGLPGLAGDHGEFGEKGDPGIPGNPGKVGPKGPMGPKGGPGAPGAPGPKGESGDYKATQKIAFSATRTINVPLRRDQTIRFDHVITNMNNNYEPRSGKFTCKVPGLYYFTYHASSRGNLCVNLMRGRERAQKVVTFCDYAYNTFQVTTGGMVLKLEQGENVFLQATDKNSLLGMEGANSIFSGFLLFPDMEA
T1 sequence (P02747 29-245 limits assumed, chain 3 of 3): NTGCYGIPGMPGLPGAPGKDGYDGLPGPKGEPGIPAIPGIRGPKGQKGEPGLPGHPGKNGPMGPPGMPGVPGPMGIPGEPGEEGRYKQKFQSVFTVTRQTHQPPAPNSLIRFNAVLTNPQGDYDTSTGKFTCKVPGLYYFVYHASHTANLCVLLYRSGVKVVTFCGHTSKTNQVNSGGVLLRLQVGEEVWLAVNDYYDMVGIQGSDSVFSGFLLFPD
T4 sequence (P08637 17-208 limits assumed): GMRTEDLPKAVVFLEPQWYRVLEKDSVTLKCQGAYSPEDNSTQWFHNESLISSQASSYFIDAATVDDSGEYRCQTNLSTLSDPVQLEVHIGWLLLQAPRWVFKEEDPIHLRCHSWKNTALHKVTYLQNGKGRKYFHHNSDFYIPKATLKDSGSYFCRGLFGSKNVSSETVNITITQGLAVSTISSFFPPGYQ
T3 sequence (P08637 17-208 F176V limits assumed): as the sequence (P08637 17-208 limits assumed) above, with F160V counted along it

B1: HBC34-V35-MLNS-GAALIE (antibody, human IgG1, lambda)
heavy: ELQLVESGGGWVQPGGSQRLSCAASGRIFRSFYMSWVRQAPGKGLEWVATINQDGSEKLYVDSVKGRFTISRDNAKNSLFLQMNNLRVEDTAVYYCAAWSGNSGGMDVWGQGTTVSVSSASTKGPSVFPLAPSSKSTSGGTAALGCLVKDYFPEPVTVSWNSGALTSGVHTFPAVLQSSGLYSLSSVVTVPSSSLGTQTYICNVNHKPSNTKVDKKVEPKSCDKTHTCPPCPAPELLAGPSVFLFPPKPKDTLMISRTPEVTCVVVDVSHEDPEVKFNWYVDGVEVHNAKTKPREEQYNSTYRVVSVLTVLHQDWLNGKEYKCKVSNKALPLPEEKTISKAKGQPREPQVYTLPPSRDELTKNQVSLTCLVKGFYPSDIAVEWESNGQPENNYKTTPPVLDSDGSFFLYSKLTVDKSRWQQGNVFSCSVLHEALHSHYTQKSLSLSPGK
light: SYELTQPPSVSVSPGQTVSIPCSGDKLGNKNVAWFQHKPGQSPVLVIYEVKYRPSGIPERFSGSNSGNTATLTISGTQAMDEAAYFCQTFDSTTVVFGGGTRLTVLGQPKAAPSVTLFPPSSEELQANKATLVCLISDFYPGAVTVAWKADSSPVKAGVETTTPSKQSNNKYAASSYLSLTPEQWKSHRSYSCQVTHEGSTVEKTVAPTECS
B1: the “neutralization EC50, HDV engineered to express HBV HBsAg” value came to 0.92 ng/mL in test [1] and 2.34 ng/mL in test [2]. The binding result is listed as “no binding (tested: 3 µg/ml of purified human C1q)” in test [3], “binds” in test [4], “binds” in test [5] and “binds” in test [6].
